{"source": "paper PMC7203548", "key": {"[1]": {"biological_target": "OTK1-5 K237A ectodomain, biotinylated (pHL-Avitag3) (Drosophila melanogaster) (UniProt Q6AWJ9)", "sequence (Q6AWJ9 23-580 K237A)": "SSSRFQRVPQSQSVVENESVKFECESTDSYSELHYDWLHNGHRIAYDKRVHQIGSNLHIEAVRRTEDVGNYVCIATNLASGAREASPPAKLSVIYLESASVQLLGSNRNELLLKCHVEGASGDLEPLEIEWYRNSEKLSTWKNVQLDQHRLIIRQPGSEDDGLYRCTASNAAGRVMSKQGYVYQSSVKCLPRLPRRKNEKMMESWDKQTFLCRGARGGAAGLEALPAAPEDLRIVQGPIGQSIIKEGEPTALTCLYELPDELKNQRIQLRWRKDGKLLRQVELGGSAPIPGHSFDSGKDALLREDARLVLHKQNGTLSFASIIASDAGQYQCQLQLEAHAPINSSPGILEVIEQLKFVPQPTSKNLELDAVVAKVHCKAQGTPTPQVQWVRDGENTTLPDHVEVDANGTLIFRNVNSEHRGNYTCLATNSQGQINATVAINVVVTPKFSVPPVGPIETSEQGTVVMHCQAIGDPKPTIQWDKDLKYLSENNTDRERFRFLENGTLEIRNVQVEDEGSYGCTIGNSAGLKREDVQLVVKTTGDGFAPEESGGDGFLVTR", "assay": "SPR; equilibrium, apparent KD; biotinylated OTK immobilised on SA chip from dialysed conditioned medium; Biacore T200, PBS, 0.05% Tween 20, 25°C"}, "[2]": {"biological_target": "PlexA_(ecto) (full-length ectodomain of Drosophila Plexin A, all ten domains, residues 28-1272), biotinylated (Drosophila) (UniProt Q9V491)", "sequence (Q9V491 entry or part of it)": "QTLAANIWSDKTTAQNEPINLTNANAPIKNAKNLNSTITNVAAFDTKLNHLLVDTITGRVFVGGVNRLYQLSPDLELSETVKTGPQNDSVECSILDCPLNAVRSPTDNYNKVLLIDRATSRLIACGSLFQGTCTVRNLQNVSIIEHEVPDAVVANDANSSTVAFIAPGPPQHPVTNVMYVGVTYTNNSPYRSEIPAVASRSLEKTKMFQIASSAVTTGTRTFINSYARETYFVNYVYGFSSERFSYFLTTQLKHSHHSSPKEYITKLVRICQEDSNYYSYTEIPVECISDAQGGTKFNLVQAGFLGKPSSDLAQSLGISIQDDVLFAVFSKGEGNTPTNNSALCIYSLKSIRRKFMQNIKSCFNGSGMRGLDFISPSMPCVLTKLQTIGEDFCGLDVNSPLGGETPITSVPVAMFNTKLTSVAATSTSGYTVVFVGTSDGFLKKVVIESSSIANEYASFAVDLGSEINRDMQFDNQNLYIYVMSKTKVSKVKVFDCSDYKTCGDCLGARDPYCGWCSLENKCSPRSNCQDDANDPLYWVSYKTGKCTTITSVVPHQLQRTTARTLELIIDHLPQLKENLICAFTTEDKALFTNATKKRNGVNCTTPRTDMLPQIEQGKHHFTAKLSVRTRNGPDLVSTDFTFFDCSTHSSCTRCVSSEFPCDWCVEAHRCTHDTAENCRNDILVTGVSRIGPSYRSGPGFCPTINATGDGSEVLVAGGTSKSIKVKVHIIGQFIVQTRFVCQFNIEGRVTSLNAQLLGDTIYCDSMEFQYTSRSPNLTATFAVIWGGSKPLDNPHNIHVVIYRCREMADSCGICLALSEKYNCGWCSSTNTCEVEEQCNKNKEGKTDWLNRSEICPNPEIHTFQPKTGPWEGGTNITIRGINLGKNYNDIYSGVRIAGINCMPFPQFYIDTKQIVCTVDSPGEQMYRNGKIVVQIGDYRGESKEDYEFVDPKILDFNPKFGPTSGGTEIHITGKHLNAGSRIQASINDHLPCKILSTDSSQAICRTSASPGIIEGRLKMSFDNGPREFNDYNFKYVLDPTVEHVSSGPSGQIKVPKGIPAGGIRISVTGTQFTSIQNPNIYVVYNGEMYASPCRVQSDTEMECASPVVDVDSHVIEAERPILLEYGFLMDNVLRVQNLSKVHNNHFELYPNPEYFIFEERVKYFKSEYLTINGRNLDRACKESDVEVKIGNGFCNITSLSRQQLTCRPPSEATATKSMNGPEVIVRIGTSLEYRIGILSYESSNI", "assay": "SPR; equilibrium, apparent KD; biotinylated PlexA constructs immobilised on SA chip from dialysed conditioned medium; Biacore T200, PBS, 0.05% Tween 20, 25°C"}}, "data": [{"substance": "Sema1a ectodomain (Drosophila semaphorin 1a) (from UniProt Q24322 1-899) (ligand)", "values": [{"measurement": "Kd", "setting": "[1]", "result": 4, "unit": "µM"}, {"measurement": "Kd", "setting": "[2]", "result": 7.4, "unit": "µM"}]}]}
